From patent US20130231277A1 (NEW YORK UNIVERSITY, published 2013) come the findings set out here.

In test [1] the target is T1, ectodomain of murine βKlotho (F53 to L995 of SEQ ID NO: 218) with a C-terminal FLAG tag (murine, UniProt Q99N32 53-995).
T1 construct: Expressed in HEK293 cells and purified from culture media; also called βKlotho ectodomain; not shown: C-terminal FLAG tag
T1 sequence: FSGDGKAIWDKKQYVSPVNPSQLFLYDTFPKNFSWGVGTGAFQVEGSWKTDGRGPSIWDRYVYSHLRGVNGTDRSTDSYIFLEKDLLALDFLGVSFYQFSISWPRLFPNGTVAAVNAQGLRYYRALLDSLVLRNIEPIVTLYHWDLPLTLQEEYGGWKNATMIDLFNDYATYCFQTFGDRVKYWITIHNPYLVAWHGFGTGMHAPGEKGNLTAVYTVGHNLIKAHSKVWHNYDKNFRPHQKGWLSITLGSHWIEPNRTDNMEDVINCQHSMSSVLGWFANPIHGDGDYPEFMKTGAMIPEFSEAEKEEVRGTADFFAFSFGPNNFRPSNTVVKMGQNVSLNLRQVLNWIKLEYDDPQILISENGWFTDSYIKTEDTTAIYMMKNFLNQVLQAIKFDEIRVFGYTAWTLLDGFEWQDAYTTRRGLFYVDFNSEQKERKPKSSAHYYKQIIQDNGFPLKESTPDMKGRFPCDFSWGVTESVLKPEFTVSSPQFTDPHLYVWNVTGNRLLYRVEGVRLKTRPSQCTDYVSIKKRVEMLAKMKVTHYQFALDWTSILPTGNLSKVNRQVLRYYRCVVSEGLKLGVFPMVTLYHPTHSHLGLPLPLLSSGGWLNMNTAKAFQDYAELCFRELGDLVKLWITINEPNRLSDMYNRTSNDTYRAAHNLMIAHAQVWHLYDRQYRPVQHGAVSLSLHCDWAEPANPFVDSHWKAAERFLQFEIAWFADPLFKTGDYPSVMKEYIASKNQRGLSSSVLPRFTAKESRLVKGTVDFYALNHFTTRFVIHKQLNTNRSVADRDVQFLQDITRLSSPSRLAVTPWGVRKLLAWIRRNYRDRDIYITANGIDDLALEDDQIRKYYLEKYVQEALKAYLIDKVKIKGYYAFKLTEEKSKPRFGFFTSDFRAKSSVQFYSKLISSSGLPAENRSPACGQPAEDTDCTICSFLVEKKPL
Description: SPR competition; FGF19 or FGF21 immobilized, fixed βKlotho ectodomain mixed with increasing peptide (FIGS. 5B, 5F). The source says:
Residues that are identical between FGF19 and FGF21 are shaded gray. Note that 40% of these residues map to the most C-terminal sequence. […] FGF19 was immobilized on a biosensor chip, and mixtures of a fixed concentration of βKlotho ectodomain with increasing concentrations of FGF19^C-tail were passed over the chip. […] Mixtures of a fixed concentration of βKlotho ectodomain with increasing concentrations of FGF21^C-tail were passed over a biosensor chip onto which FGF19 had been immobilized. […] FGF21 was immobilized on a biosensor chip, and mixtures of a fixed concentration of βKlotho ectodomain with increasing concentrations of FGF21^C-tail were passed over the chip. […] Mixtures of a fixed concentration of βKlotho ectodomain with increasing concentrations of FGF19^C-tail were passed over a biosensor chip onto which FGF21 had been immobilized. […] The data shown in FIGS. 5B-G are representative of two to three independent experiments.

The target of test [2] is T1, ectodomain of murine βKlotho (F53 to …). Put plainly: SPR competition; FGF21 immobilized, fixed βKlotho ectodomain mixed with increasing chimera (FIGS. 7B, 7C). Here is the method:
Increasing concentrations of FGF21 were mixed with a fixed concentration of βKlotho ectodomain, and the mixtures were passed over a FGF21 chip. […] Increasing concentrations of FGF21²⁹⁻¹⁹⁰/FGF19¹⁹⁷⁻²¹⁶ chimera were mixed with a fixed concentration of βKlotho ectodomain, and the mixtures were passed over a FGF21 chip. […] The figure was created from the data shown in FIGS. 7A-B, which are representative of two independent experiments.
SPR experiments were performed on a Biacore 2000 instrument (Biacore AB), and all the protein-protein and protein-peptide interactions were studied at 25° C. in HBS-EP buffer (10 mM HEPES-NaOH, pH 7.4, 150 mM NaCl, 3 mM EDTA, 0.005% (v/v) polysorbate 20). Proteins were immobilized by amine coupling on flow channels of research grade CM5 chips (Biacore AB). Proteins were injected over a CM5 chip at a flow rate of 50 μl min⁻¹, and at the end of each protein injection (180 s), HBS-EP buffer (50 μl min⁻¹) was flowed over the chip to monitor dissociation for 180 s. In experiments where βKlotho binding to FGFR was analyzed, the chip surface was then regenerated by injecting 50 μl of 2.0 M NaCl in 10 mM sodium/potassium phosphate, pH 6.5. In experiments where α/βKlotho binding to FGF19/21/23 or binding of the FGFR1c-βKlotho complex to FGF21 was studied, 2.0 M NaCl in 10 mM sodium acetate, pH 4.5 was used for chip regeneration. […]

The target of test [3] is T2, 1:1 binary complex of FGFR1c ligand-binding domain and βKlotho ectodomain (human; murine, UniProt P11362 142-365; Q99N32 53-995).
T2 construct: also called FGFR1c-βKlotho complex; FGFR1c-βKlotho; not shown: C-terminal FLAG tag
T2 sequence 1: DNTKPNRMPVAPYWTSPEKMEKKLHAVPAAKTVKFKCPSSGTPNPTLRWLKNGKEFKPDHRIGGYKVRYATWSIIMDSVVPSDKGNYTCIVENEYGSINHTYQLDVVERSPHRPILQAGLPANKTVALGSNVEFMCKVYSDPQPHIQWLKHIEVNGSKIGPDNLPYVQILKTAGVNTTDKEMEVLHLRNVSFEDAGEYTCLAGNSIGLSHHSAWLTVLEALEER
T2 sequence 2: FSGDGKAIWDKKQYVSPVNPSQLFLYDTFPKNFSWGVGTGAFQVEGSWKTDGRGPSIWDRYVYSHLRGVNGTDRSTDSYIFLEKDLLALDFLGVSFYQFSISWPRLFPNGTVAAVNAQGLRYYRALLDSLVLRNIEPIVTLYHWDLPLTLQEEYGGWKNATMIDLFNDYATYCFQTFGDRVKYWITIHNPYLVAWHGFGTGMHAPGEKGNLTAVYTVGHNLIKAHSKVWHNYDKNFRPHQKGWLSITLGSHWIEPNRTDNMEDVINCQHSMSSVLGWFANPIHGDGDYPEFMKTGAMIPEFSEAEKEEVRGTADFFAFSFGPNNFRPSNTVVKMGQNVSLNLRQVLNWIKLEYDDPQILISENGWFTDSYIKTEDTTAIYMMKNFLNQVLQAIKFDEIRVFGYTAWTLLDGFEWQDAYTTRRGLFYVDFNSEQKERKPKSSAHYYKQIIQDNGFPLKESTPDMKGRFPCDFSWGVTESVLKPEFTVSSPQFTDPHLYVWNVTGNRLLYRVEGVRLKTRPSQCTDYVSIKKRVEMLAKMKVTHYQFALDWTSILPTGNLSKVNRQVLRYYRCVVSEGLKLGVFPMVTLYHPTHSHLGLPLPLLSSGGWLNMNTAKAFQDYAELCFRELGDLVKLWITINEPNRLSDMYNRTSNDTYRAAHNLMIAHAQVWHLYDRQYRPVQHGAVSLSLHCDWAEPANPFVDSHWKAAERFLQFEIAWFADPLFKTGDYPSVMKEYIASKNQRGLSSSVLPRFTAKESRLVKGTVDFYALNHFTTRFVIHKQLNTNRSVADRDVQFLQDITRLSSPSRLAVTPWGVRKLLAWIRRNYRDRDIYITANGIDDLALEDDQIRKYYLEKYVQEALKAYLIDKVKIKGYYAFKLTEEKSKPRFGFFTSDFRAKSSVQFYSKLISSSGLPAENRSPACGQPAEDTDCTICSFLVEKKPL
Description: SPR competition; FGF21 immobilized, FGFR1c-βKlotho complex mixed with the chimera (FIGS. 15E, 15F). From the text:
In the experiments shown in FIGS. 15A-15C, increasing concentrations of either an FGF21/FGF19 chimera or wild-type FGF21 were mixed with a fixed concentration of FGFR1c-βKlotho complex, and the mixtures were passed over a FGF21 chip. […] The data shown in FIGS. 15A-15C are representative of two to three independent experiments. Included in FIGS. 15E-15F are SPR sensorgrams obtained from injecting mixtures of the FGF21²⁹⁻¹⁹⁰/FGF19¹⁹⁷⁻²¹⁶ chimera with the FGFR1c-βKlotho complex over a FGF21 chip.
SPR experiments were performed on a Biacore 2000 instrument (Biacore AB), and all the protein-protein and protein-peptide interactions were studied at 25° C. in HBS-EP buffer (10 mM HEPES-NaOH, pH 7.4, 150 mM NaCl, 3 mM EDTA, 0.005% (v/v) polysorbate 20). Proteins were immobilized by amine coupling on flow channels of research grade CM5 chips (Biacore AB). Proteins were injected over a CM5 chip at a flow rate of 50 μl min⁻¹, and at the end of each protein injection (180 s), HBS-EP buffer (50 μl min⁻¹) was flowed over the chip to monitor dissociation for 180 s.

For test [4], the target named is FGFR1c endogenously expressed by HEK293 cells transiently transfected with murine βKlotho (UniProt P11362 22-822). Description: cell-based or functional assay.
Test [5] addresses T1, ectodomain of murine βKlotho (F53 to …). Put plainly: size-exclusion chromatography of the binary complex (FIG. 1A). The method, then: Size-exclusion chromatography experiments were performed on a HiLoad™ 16/60 Superdex™ 200 prep grade column (GE Healthcare) mounted on an ÄKTApurifier (GE Healthcare). […] Sample injection volume was 0.9 to 2.0 ml, and the flow rate was 1.0 ml min⁻¹. Protein retention times were determined by absorbance at 280 nm. The column was calibrated with ferritin (440 kDa), immunoglobulin G (150 kDa), albumin (69.3 kDa), ovalbumin (44.3 kDa), carbonic anhydrase (28.8 kDa), and ribonuclease A (13.7 kDa). The void volume was determined using blue dextran 2,000, and the column volume was measured with acetone. To examine ternary complex formation between FGF21, FGFR1c, and βKlotho, 2.72 μmol of the 1:1 binary complex of FGFR1c ligand-binding domain and βKlotho ectodomain were mixed with 9.25 μmol of FGF21, and the mixture was applied to the size-exclusion column. The retention time of the FGFR1c-βKlotho complex alone served as a reference point. To examine ternary complex formation between FGF19, FGFR4, and βKlotho, 2.46 μmol of the 1:1 binary complex of FGFR4 ligand-binding domain and βKlotho ectodomain were mixed with 8.51 μmol of FGF19, and the mixture was applied to the size-exclusion column. The retention time of the FGFR4-βKlotho complex alone served as a reference point. […]
Background: In gel filtration, larger molecules generally elute earlier.

Test [6] deals with T2, 1:1 binary complex of FGFR1c …. Put plainly: SPR competition; FGF21 immobilized, complex mixed with the mutant at a molar ratio of 1:2 or 1:6 (FIG. 14B). The method, then:
Increasing concentrations of FGF21 were mixed with a fixed concentration of FGFR1c-βKlotho complex, and the mixtures were passed over a FGF21 chip. […] In the experiments shown in FIGS. 14B-14C, FGFR1c-βKlotho complex was mixed with either mutant FGF21 or wild-type FGF21 at a molar ratio of 1:2 or 1:6, and the mixtures were injected over a FGF21 chip. The data shown in FIGS. 14A-14C are representative of two to three independent experiments.
SPR experiments were performed on a Biacore 2000 instrument (Biacore AB), and all the protein-protein and protein-peptide interactions were studied at 25° C. in HBS-EP buffer (10 mM HEPES-NaOH, pH 7.4, 150 mM NaCl, 3 mM EDTA, 0.005% (v/v) polysorbate 20). Proteins were immobilized by amine coupling on flow channels of research grade CM5 chips (Biacore AB). Proteins were injected over a CM5 chip at a flow rate of 50 μl min⁻¹, and at the end of each protein injection (180 s), HBS-EP buffer (50 μl min⁻¹) was flowed over the chip to monitor dissociation for 180 s. In experiments where βKlotho binding to FGFR was analyzed, the chip surface was then regenerated by injecting 50 μl of 2.0 M NaCl in 10 mM sodium/potassium phosphate, pH 6.5. In experiments where α/βKlotho binding to FGF19/21/23 or binding of the FGFR1c-βKlotho complex to FGF21 was studied, 2.0 M NaCl in 10 mM sodium acetate, pH 4.5 was used for chip regeneration.

FGFR1c endogenously expressed by HEK293 cells transiently transfected with murine βKlotho, sequence (P11362 22-822): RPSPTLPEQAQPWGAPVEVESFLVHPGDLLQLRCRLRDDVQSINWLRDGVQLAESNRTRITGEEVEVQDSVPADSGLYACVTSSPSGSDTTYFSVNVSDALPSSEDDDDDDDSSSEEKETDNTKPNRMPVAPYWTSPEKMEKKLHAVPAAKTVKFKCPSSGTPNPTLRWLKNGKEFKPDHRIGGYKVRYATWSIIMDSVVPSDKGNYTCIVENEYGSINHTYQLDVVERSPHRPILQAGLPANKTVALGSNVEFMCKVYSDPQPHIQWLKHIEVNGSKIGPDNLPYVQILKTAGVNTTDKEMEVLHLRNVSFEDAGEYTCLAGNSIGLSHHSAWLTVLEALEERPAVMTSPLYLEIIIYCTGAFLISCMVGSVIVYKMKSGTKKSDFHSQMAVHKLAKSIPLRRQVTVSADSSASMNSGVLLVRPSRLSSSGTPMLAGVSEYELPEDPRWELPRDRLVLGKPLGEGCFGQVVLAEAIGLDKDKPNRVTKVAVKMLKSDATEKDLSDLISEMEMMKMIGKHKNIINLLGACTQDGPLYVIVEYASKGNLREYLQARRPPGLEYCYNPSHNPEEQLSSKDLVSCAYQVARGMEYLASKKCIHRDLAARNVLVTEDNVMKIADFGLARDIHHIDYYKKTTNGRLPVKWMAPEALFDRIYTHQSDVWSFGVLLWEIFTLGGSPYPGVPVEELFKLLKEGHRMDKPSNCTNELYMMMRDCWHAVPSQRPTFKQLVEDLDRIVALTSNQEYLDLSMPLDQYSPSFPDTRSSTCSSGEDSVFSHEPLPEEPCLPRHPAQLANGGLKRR

B1: C-terminal tail peptide of human FGF19 (M171 to K216 of SEQ ID NO: 1), fused to a 50 residue-long N-terminal tag including a hexahistidine tag (peptide)
peptide: MVPEEPEDLRGHLESDMFSSPLETDSMDPFGLVTGLEAVRSPSFEK
notes: Expressed in E. coli and purified from the soluble lysate fraction; also called FGF19^C-tail; FGF19 C-terminal tail peptide; not shown: 50 residue-long N-terminal tag including a hexahistidine tag
As for B1, in test [1], the binding result is “binds”.

B2: FGF21^29-190/FGF19^197-216 chimera (H29 to S190 of human FGF21 and M197 to K216 of human FGF19; SEQ ID NO: 206) (ligand)
chain: HPIPDSSPLLQFGGQVRQRYLYTDDAQQTEAHLEIREDGTVGGAADQSPESLLQLKALKPGVIQILGVKTSRFLCQRPDGALYGSLHFDPEACSFRELLLEDGYNVYQSEAHGLPLHLPGNKSPHRDPAPRGPARFLPLPGLPPALPEPPGILAPQPPDVGSMDPFGLVTGLEAVRSPSFEK
notes: Chimera of human FGF21 and human FGF19, purified from E. coli inclusion bodies; also called FGF21^C-tail variant 19-45
In the case of B2, the binding result in test [2] and in test [3] was “binds” throughout.

B3: FGF21^29-167/FGF19^169-216 chimera (H29 to L167 of human FGF21 and L169 to K216 of human FGF19; SEQ ID NO: 207) (ligand)
chain: HPIPDSSPLLQFGGQVRQRYLYTDDAQQTEAHLEIREDGTVGGAADQSPESLLQLKALKPGVIQILGVKTSRFLCQRPDGALYGSLHFDPEACSFRELLLEDGYNVYQSEAHGLPLHLPGNKSPHRDPAPRGPARFLPLLPMVPEEPEDLRGHLESDMFSSPLETDSMDPFGLVTGLEAVRSPSFEK
On to B3, for which the “Induction of Egr1 protein expression (immunoblot, HEK293 cells co-expressing FGFR1c and βKlotho)” value in test [4] was 10 fold lower concentration than native FGF21.

B4: ligand-binding domain of human FGFR1c (D142 to R365 of SEQ ID NO: 221) (receptor)
chain: DNTKPNRMPVAPYWTSPEKMEKKLHAVPAAKTVKFKCPSSGTPNPTLRWLKNGKEFKPDHRIGGYKVRYATWSIIMDSVVPSDKGNYTCIVENEYGSINHTYQLDVVERSPHRPILQAGLPANKTVALGSNVEFMCKVYSDPQPHIQWLKHIEVNGSKIGPDNLPYVQILKTAGVNTTDKEMEVLHLRNVSFEDAGEYTCLAGNSIGLSHHSAWLTVLEALEER
For B4, in test [5], the binding result was “binds”.

B5: Y207F single mutant of human FGF21 (SEQ ID NO: 232) (ligand)
chain: HPIPDSSPLLQFGGQVRQRYLYTDDAQQTEAHLEIREDGTVGGAADQSPESLLQLKALKPGVIQILGVKTSRFLCQRPDGALYGSLHFDPEACSFRELLLEDGYNVYQSEAHGLPLHLPGNKSPHRDPAPRGPARFLPLPGLPPALPEPPGILAPQPPDVGSSDPLSMVGPSQGRSPSFAS
notes: It was purified by the same protocol as the wild-type protein, which was H29 to S209; also called Y207F mutant of FGF21; single mutant FGF21
With B5, the binding result in test [6] is listed as “binds”.
